Assay results taken from US12365732.
pEC50, pIC50, pKd: −log10 of the molar value.

Experiments:
[1] = molecular target: hu-CD96 isoform 2 on CHO cells (human) (UniProt P40200); assay: FACS, CD155-Fc-FLAG 10 nM, Ab 20 nM
[2] = molecular target: human CD96 on primary human immune cells (PBMCs, NK cells, CD4+ T cells) (human) (UniProt P40200); assay: FACS, Ab 16 nM
[3] = molecular target: cynomolgus monkey CD96 on cynomolgus monkey PBMCs (cynomolgus monkey); assay: FACS, Ab 16 nM
[4] = molecular target: hu-CD96 isoform 2 on CHO cells (human) (UniProt P40200); assay: FACS, CD155-Fc-FLAG 10 nM, Ab 4 nM
[5] = molecular target: hu-CD96 isoform 2 on CHO cells (human) (UniProt P40200); assay: FACS, CD155-Fc-FLAG 10 nM, Ab 0.0064 nM
[6] = molecular target: hu-CD96 isoform 2 on CHO cells (human) (UniProt P40200); assay: FACS, CD155-Fc-FLAG 10 nM, Ab 0.032 nM
[7] = molecular target: hu-CD96 isoform 2 on CHO cells (human) (UniProt P40200); assay: FACS, Ab 0.4 nM
[8] = molecular target: human CD96 on primary human immune cells (PBMCs, NK cells, CD4+ T cells) (human) (UniProt P40200); assay: FACS, Ab 0.0256 nM
[9] = molecular target: cynomolgus monkey CD96 on cynomolgus monkey PBMCs (cynomolgus monkey); assay: FACS, Ab 0.0256 nM
[10] = molecular target: human CD96 on primary human immune cells (PBMCs, NK cells, CD4+ T cells) (human) (UniProt P40200); assay: cell-based or functional assay
hu-CD96 Fc (human) = assay: SPR 37C, biotin-CD96-Fc captured, IgG analyte
[11] = molecular target: recombinant hu-CD96 (M1-M503-polyHis) (human) (UniProt P40200); assay: ELISA, blocks hu-CD96-his binding to coated CD155-hFc
hu-CD96D1 D3-hFc (human) = assay: ELISA, coated CD96D1D3-hFc
[12] = molecular target: human CD96 on primary human immune cells (PBMCs, NK cells, CD4+ T cells) (human) (UniProt P40200); assay: FACS, % positive curve
[13] = molecular target: cynomolgus monkey CD96 on cynomolgus monkey PBMCs (cynomolgus monkey); assay: FACS, % positive curve
[14] = molecular target: hu-CD96 isoform 2 on CHO cells (human) (UniProt P40200); assay: FACS, % positive curve
[15] = molecular target: hu-CD96 isoform 2 on CHO cells (human) (UniProt P40200); assay: FACS, blocks 10 nM CD155-Fc-FLAG binding to CD96-CHO
[16] = molecular target: hu-CD96 isoform 2 on CHO cells (human) (UniProt P40200); assay: FACS, Ab 10 nM
[17] = molecular target: hu-CD96 isoform 2 on CHO cells (human) (UniProt P40200); assay: FACS, Ab 50 nM
[18] = molecular target: human CD96 on primary human immune cells (PBMCs, NK cells, CD4+ T cells) (human) (UniProt P40200); assay: FACS, Ab 80 nM
[19] = molecular target: cynomolgus monkey CD96 on cynomolgus monkey PBMCs (cynomolgus monkey); assay: FACS, Ab 80 nM
[20] = molecular target: human CD96 on primary human immune cells (PBMCs, NK cells, CD4+ T cells) (human) (UniProt P40200); assay: FACS, Ab 3.2 nM
[21] = molecular target: cynomolgus monkey CD96 on cynomolgus monkey PBMCs (cynomolgus monkey); assay: FACS, Ab 3.2 nM
[22] = molecular target: human CD96 on primary human immune cells (PBMCs, NK cells, CD4+ T cells) (human) (UniProt P40200); assay: FACS, Ab 0.64 nM
[23] = molecular target: cynomolgus monkey CD96 on cynomolgus monkey PBMCs (cynomolgus monkey); assay: FACS, Ab 0.64 nM
[24] = molecular target: hu-CD96 isoform 2 on CHO cells (human) (UniProt P40200); assay: FACS, Ab 0.0032 nM
[25] = molecular target: human CD96 on primary human immune cells (PBMCs, NK cells, CD4+ T cells) (human) (UniProt P40200); assay: FACS, Ab 0.00512 nM
[26] = molecular target: cynomolgus monkey CD96 on cynomolgus monkey PBMCs (cynomolgus monkey); assay: FACS, Ab 0.00512 nM
[27] = molecular target: hu-CD96 (soluble, isoform 2 extracellular domain) (human) (UniProt P40200); assay: SPR 25C, IgG captured, CD96 analyte
[28] = molecular target: hu-CD96 isoform 2 on CHO cells (human) (UniProt P40200); assay: FACS, CD155-Fc-FLAG 10 nM, Ab 100 nM
[29] = molecular target: hu-CD96 isoform 2 on CHO cells (human) (UniProt P40200); assay: FACS, CD155-Fc-FLAG 10 nM, Ab 0.16 nM
[30] = molecular target: hu-CD96 isoform 2 on CHO cells (human) (UniProt P40200); assay: FACS, CD155-Fc-FLAG 10 nM, Ab 0.8 nM
[31] = molecular target: hu-CD96 isoform 2 on CHO cells (human) (UniProt P40200); assay: FACS, Ab 0.016 nM
[32] = molecular target: hu-CD96 isoform 2 on CHO cells (human) (UniProt P40200); assay: FACS, Ab 2 nM
[33] = molecular target: hu-CD96 isoform 2 on CHO cells (human) (UniProt P40200); assay: FACS, Ab 0.08 nM
[34] = molecular target: human CD96 on primary human immune cells (PBMCs, NK cells, CD4+ T cells) (human) (UniProt P40200); assay: FACS, Ab 0.128 nM
[35] = molecular target: cynomolgus monkey CD96 on cynomolgus monkey PBMCs (cynomolgus monkey); assay: FACS, Ab 0.128 nM
[36] = molecular target: cy-CD226 His tag (cynomolgus monkey); assay: SPR 25C, biotin-CD226-His captured, IgG analyte
hu-CD226 His tag (human) = hu-CD226 His tag (human) (UniProt Q15762); assay: SPR 25C, biotin-CD226-His captured, IgG analyte
[37] = molecular target: hu-CD96 isoform 1 on HEK293T cells (human) (UniProt P40200); assay: FACS, Ab 0.4 nM
[38] = molecular target: hu-CD96 isoform 1 on HEK293T cells (human) (UniProt P40200); assay: FACS, Ab 10 nM
[39] = molecular target: hu-CD96 isoform 1 on HEK293T cells (human) (UniProt P40200); assay: FACS, Ab 50 nM
[40] = molecular target: hu-CD96 isoform 1 on HEK293T cells (human) (UniProt P40200); assay: FACS, Ab 0.016 nM
[41] = molecular target: hu-CD96 isoform 1 on HEK293T cells (human) (UniProt P40200); assay: FACS, Ab 2 nM
[42] = molecular target: hu-CD96 isoform 1 on HEK293T cells (human) (UniProt P40200); assay: FACS, Ab 0.08 nM

Chain of hu-CD96 Fc (human) (chain, as listed by the source): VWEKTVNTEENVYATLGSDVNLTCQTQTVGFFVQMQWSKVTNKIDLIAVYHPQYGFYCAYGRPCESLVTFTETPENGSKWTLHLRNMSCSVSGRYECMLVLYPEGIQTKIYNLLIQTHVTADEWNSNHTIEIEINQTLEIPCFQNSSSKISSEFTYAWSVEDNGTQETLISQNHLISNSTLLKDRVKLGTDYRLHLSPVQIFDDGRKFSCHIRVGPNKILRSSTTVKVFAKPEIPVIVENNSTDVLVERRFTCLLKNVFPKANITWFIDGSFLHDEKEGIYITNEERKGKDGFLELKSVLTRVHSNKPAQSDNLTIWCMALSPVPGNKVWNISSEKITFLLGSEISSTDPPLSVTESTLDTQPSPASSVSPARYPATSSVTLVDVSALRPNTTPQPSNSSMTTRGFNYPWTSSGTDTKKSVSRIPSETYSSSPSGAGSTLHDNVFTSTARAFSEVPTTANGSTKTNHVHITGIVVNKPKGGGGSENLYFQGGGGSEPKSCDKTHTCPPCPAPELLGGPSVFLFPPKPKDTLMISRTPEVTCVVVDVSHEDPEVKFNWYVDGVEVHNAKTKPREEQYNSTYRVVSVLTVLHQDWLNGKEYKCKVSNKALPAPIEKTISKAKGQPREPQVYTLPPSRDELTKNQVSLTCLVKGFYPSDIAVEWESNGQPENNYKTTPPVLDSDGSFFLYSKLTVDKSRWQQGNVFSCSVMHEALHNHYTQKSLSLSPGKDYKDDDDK
Chain of hu-CD226 His tag (human) (Q15762 19-247 limits assumed): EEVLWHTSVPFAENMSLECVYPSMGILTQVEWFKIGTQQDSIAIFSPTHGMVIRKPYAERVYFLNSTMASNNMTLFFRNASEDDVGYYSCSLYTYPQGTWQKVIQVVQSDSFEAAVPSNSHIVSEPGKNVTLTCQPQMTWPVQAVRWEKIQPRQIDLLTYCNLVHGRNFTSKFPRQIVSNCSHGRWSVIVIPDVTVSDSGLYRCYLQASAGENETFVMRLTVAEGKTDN
Chain of cy-CD226 His tag (cynomolgus monkey) (chain, as listed by the source): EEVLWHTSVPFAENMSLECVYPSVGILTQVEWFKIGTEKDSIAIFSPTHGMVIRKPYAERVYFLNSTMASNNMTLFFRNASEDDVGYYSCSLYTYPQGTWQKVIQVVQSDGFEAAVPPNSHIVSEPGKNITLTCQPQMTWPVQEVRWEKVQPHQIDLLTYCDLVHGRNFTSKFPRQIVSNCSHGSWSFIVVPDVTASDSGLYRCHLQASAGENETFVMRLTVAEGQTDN
Chain of hu-CD96D1 D3-hFc (human) (chain, as listed by the source limits assumed): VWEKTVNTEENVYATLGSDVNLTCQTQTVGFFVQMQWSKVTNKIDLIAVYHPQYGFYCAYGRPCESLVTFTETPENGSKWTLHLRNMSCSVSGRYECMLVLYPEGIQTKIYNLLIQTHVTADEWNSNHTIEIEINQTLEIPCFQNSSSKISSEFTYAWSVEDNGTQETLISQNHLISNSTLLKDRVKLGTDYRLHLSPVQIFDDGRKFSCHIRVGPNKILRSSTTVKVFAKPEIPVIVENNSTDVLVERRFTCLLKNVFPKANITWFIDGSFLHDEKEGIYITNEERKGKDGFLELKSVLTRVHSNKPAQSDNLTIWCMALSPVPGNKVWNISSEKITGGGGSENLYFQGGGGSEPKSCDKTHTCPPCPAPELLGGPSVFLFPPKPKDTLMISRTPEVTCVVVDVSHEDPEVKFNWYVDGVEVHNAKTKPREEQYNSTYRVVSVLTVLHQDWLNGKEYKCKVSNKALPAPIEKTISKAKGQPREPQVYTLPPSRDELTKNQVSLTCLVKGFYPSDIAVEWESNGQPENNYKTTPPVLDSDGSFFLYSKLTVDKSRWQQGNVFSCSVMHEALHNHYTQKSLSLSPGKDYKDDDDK

Substance: NK92.39 (antibody)
- CD155-Fc binding (MedFI) [1]: 5040 MedFI
- % positive [2]: 94.3%
- % positive [3]: 5.4%
- CD155-Fc binding (MedFI) [4]: 5040 MedFI
- CD155-Fc binding (MedFI) [5]: 64100 MedFI
- CD155-Fc binding (MedFI) [6]: 69300 MedFI
- % positive [7]: 4%
- % positive [8]: 0.9%
- % positive [9]: 5%
- Human NK cell IFNγ secretion (fold over background), Ab 0.08 nM [10]: 1.38 fold
- Human NK cell IFNγ secretion (fold over background), Ab 0.4 nM [10]: 0.69 fold
- Human NK cell IFNγ secretion (fold over background), Ab 2 nM [10]: 1.27 fold
- Human NK cell IFNγ secretion (fold over background), Ab 10 nM [10]: 1.39 fold
- Human NK cell IFNγ secretion (fold over background), Ab 50 nM [10]: 1.68 fold
- Human NK cell IFNγ secretion (fold over background), Ab 250 nM [10]: 1.62 fold
- Human NK cell IFNγ secretion, EC50 [10]: 5.53 nM
- Human NK cell IFNγ secretion, maximal efficacy relative to h10G1 [10]: 61%
- pKd (hu-CD96 Fc (human)): 7.85
- koff (hu-CD96 Fc (human)): 0.0012 s⁻¹
- kon (hu-CD96 Fc (human)): 84400 M⁻¹ s⁻¹
- pIC50 [11]: 8.59
- pEC50 (hu-CD96D1 D3-hFc (human)): 9.01
- pEC50 [12]: 8.91
- pEC50 [13]: 8.96
- pEC50 [14]: 8.94
- pIC50 [15]: 9.04
- % positive [16]: 21.5%
- % positive [17]: 22%
- % positive [18]: 91.9%
- % positive [19]: 4.9%
- % positive [20]: 76.7%
- % positive [21]: 5.2%
- % positive [22]: 27.4%
- % positive [23]: 4.7%
- % positive [24]: 0.1%
- % positive [25]: 1.3%
- % positive [26]: 4.5%
- pKd [27]: 7.84
- CD155-Fc binding (MedFI) [28]: 5050 MedFI
- CD155-Fc binding (MedFI) [29]: 62600 MedFI
- CD155-Fc binding (MedFI) [30]: 40300 MedFI
- % positive [31]: 0.1%
- % positive [32]: 15.8%
- % positive [33]: 0.2%
- % positive [34]: 2%
- % positive [35]: 5.2%

Substance: anti-hCD226 antibody DX11
- pKd [36]: 10.70
- pKd (hu-CD226 His tag (human)): 8.16

Substance: hu-IgG1 control antibody
- CD155-Fc binding (MedFI) [1]: 57300 MedFI
- % positive [2]: 4.61%
- % positive [3]: 0.64%
- CD155-Fc binding (MedFI) [4]: 63100 MedFI
- CD155-Fc binding (MedFI) [5]: 47700 MedFI
- CD155-Fc binding (MedFI) [6]: 52800 MedFI
- % positive [8]: 5.5%
- % positive [9]: 0.57%
- % positive [18]: 3.1%
- % positive [19]: 2.36%
- % positive [20]: 4.67%
- % positive [21]: 1.15%
- % positive [22]: 4.04%
- % positive [23]: 0.59%
- % positive [25]: 5.29%
- % positive [26]: 0.41%
- CD155-Fc binding (MedFI) [28]: 51700 MedFI
- CD155-Fc binding (MedFI) [29]: 59400 MedFI
- CD155-Fc binding (MedFI) [30]: 58300 MedFI
- % positive [34]: 3.98%
- % positive [35]: 0.31%

Substance: muIgG1 control antibody
- CD155-Fc binding (MedFI) [1]: 71600 MedFI
- % positive [2]: 2.05%
- % positive [3]: 1.77%
- CD155-Fc binding (MedFI) [4]: 71600 MedFI
- CD155-Fc binding (MedFI) [5]: 64300 MedFI
- CD155-Fc binding (MedFI) [6]: 65400 MedFI
- % positive [37]: 0.49%
- % positive [7]: 0.14%
- % positive [8]: 1.48%
- % positive [9]: 1%
- % positive [38]: 0.48%
- % positive [16]: 0.18%
- % positive [39]: 0.75%
- % positive [17]: 0.42%
- % positive [18]: 2.34%
- % positive [19]: 1.9%
- % positive [20]: 1.42%
- % positive [21]: 0.95%
- % positive [22]: 1.5%
- % positive [23]: 1.07%
- % positive [24]: 0.03%
- % positive [25]: 0.98%
- % positive [26]: 0.76%
- CD155-Fc binding (MedFI) [28]: 76000 MedFI
- CD155-Fc binding (MedFI) [29]: 64400 MedFI
- CD155-Fc binding (MedFI) [30]: 66600 MedFI
- % positive [40]: 0.41%
- % positive [31]: 0.06%
- % positive [41]: 0.49%
- % positive [32]: 0.27%
- % positive [42]: 0.41%
- % positive [33]: 0.11%
- % positive [34]: 1.09%
- % positive [35]: 0.83%
